Results on two molecules are retold here after patent US20260125457A1 (Janssen / Centocor, published 2026).

Test [1] deals with T1, wild-type calreticulin (CALRwt) expressed with MPL in engineered cancer cells (UniProt P27797 18-417, limits assumed).
T1 construct: whole, on cells; also called OCI-M2 MPL CALRwt
T1 sequence (looked up): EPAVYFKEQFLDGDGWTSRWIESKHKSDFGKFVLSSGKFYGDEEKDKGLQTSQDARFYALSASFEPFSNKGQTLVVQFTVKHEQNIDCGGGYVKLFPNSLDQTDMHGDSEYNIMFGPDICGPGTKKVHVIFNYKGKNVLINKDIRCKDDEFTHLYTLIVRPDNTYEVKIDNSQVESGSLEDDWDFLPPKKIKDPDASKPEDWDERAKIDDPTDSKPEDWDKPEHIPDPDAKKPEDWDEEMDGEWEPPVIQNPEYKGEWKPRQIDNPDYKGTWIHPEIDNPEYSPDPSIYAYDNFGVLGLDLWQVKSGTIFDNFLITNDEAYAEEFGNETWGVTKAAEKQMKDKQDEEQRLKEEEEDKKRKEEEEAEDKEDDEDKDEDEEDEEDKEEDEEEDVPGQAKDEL
Put plainly: flow cytometry, ELF-153 and OCI-M2 MPL CALRwt cells.

For test [2], the target named is T2, CD3 on primary human pan T cells (human, UniProt P07766 23-207).
T2 construct: whole, on cells; also called CD3e; CD3ε
Put plainly: flow cytometry on pan CD3 T cells, 1 h at 37 C, AF647 secondary antibody, Geometric Mean. The procedure:
FIG. 22 depicts binding of different CALRmutxCD3 bispecific antibodies to pan CD3 T cells. Flow cytometry was used to evaluate CALRmutxCD3 binding to pan CD3 T cells in vitro, by 1 hour 37° C. incubation, with subsequent incubation with secondary AF647-labeled antibody. Geometric mean fluorescence intensity of AF647 was measured to determine antibody binding.
Flow cytometry was used to evaluate the CD3 arm binding of CALRmutxCD3 antibodies listed in Table 21 to CD3+ pan T cells from healthy human donor. CALRmutxCD3 were tested after 1 hour 37° C. incubation with pan T cells.
In general terms: A flow cytometer gives signals particle by particle.

The target in test [3] is T3, CALRdel52 (mutant calreticulin, 52 base pair deletion, Type 1) expressed with MPL on engineered cancer cells (UniProt P27797 18-417).
T3 construct: whole, on cells; On the cell surface in complex with MPL; also called OCI-M2 MPL CALRdel52
T3 sequence (looked up): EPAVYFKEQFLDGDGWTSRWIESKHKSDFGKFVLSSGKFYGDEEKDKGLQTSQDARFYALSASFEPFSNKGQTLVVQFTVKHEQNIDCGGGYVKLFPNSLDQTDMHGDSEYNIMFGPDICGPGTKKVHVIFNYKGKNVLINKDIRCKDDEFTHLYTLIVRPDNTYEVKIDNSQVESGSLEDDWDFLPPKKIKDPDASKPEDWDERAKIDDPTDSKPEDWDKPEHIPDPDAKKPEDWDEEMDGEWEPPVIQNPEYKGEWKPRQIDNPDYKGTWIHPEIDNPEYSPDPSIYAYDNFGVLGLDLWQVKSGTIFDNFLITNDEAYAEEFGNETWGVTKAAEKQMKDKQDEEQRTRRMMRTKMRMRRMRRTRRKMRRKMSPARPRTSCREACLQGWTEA
The test can be described thus: flow cytometry on OCI-M2 MPL CALRdel52 cells, 1 h at 37 C, AF647 secondary antibody, Geometric Mean. The procedure:
FIGS. 21A-21F depict binding of different CALRmutxCD3 bispecific antibodies to CALRmut-negative or CALRmut-positive cells. Flow cytometry was used to evaluate CALRmutxCD3 binding to CALRmut-negative and CALRmut-positive cancer cells in vitro. CALRmutxCD3 antibodies were tested on a panel of cell lines, engineered to express MPL and CALRmut, after 1 hour 37° C. incubation, with subsequent incubation with secondary AF647-labeled antibody. Geometric mean fluorescence intensity of AF647 was measured to determine antibody binding.

Test [4] deals with T1, wild-type calreticulin (CALRwt) …. Put plainly: flow cytometry, OCI-M2 and ELF-153 MPL CALRwt cells.
The target of test [5] is T4, CALRins5 (mutant calreticulin, 5 base pair insertion, Type 2) expressed with MPL on engineered cancer cells (UniProt P27797 18-417).
T4 construct: whole, on cells; On the cell surface in complex with MPL; also called OCI-M2 MPL CALRins5
T4 sequence (looked up): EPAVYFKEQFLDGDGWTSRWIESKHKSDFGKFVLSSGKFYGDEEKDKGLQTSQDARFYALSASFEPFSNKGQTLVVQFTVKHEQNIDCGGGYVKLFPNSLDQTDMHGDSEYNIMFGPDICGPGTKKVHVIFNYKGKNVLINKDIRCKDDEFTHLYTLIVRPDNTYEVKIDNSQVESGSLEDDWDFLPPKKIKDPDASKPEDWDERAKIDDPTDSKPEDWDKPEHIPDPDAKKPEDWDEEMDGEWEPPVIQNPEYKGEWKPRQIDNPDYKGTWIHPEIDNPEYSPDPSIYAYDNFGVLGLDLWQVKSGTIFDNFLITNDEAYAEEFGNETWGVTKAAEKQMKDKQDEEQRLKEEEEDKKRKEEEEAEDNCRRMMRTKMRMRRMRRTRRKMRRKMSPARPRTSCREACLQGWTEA
Put plainly: flow cytometry, OCI-M2 and ELF-153 MPL CALRins5 cells.

In test [6] the target is T3, CALRdel52 (mutant calreticulin, 52 base …). Put plainly: flow cytometry, OCI-M2 and ELF-153 MPL CALRdel52 cells.

T2 sequence (P07766 23-207): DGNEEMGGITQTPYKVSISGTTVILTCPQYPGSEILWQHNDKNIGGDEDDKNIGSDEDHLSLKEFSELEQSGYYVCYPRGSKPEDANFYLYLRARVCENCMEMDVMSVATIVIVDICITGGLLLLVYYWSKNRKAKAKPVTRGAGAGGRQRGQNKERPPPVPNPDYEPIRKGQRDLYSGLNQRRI

B1: C3CRB127 CALRmut x CD3 bispecific antibody (bispecific antibody, human IgG1, kappa, L234A L235A)
heavy 1: QVQLVQSGAEVKKPGASVKVSCKASGFSLSSYAMSWVRQAPGQGLEWMGVIDSGGTTYYAQKFQGRVTMTRDTSTSTVYMELSSLRSEDTAVYYCARESYAGYDYYGHPIPYGMEPWGQGTLVTVSSASTKGPSVFPLAPSSKSTSGGTAALGCLVKDYFPEPVTVSWNSGALTSGVHTFPAVLQSSGLYSLSSVVTVPSSSLGTQTYICNVNHKPSNTKVDKKVEPKSCGGGGSGGGGSEVQLVESGGGLVKPGGSLRLSCAASGFTFSRYNMNWVRQAPGCGLEWVSSISTSSNYIYYADSVKGRFTFSRDNAKNSLDLQMSGLRAEDTAIYYCTRGWGPFDYWGQGTLVTVSSGGGSGGSGGCPPCGGSGGDIQMTQSPSSLSASVGDRVTITCRARQSIGTAIHWYQQKPGKAPKLLIKYASESISGVPSRFSGSGSGTDFTLTISSLQPEDFATYYCQQSGSWPYTFGCGTKLEIKEPKSSDKTHTCPPCPAPEAAGGPSVFLFPPKPKDTLMISRTPEVTCVVVSVSHEDPEVKFNWYVDGVEVHNAKTKPREEQYNSTYRVVSVLTVLHQDWLNGKEYKCKVSNKALPAPIEKTISKAKGQPREPQVYTLPPSREEMTKNQVSLWCLVKGFYPSDIAVEWESNGQPENNYKTTPPVLDSDGSFFLYSKLTVDKSRWQQGNVFSCSVMHEALHNHYTQKSLSLSPGK
heavy 2: QVQLVQSGAEVKKPGASVKVSCKASGFSLSSYAMSWVRQAPGQGLEWMGVIDSGGTTYYAQKFQGRVTMTRDTSTSTVYMELSSLRSEDTAVYYCARESYAGYDYYGHPIPYGMEPWGQGTLVTVSSASTKGPSVFPLAPSSKSTSGGTAALGCLVKDYFPEPVTVSWNSGALTSGVHTFPAVLQSSGLYSLSSVVTVPSSSLGTQTYICNVNHKPSNTKVDKKVEPKSCDKTHTCPPCPAPEAAGGPSVFLFPPKPKDTLMISRTPEVTCVVVSVSHEDPEVKFNWYVDGVEVHNAKTKPREEQYNSTYRVVSVLTVLHQDWLNGKEYKCKVSNKALPAPIEKTISKAKGQPREPQVYTLPPSREEMTKNQVSLSCAVKGFYPSDIAVEWESNGQPENNYKTTPPVLDSDGSFFLVSKLTVDKSRWQQGNVFSCSVMHEALHNRFTQKSLSLSPGK
light: DIQMTQSPSTLSASVGDRVTITCQASQSLYNNKNLAWYQQKPGKAPKLLIYYASALASGVPSRFSGSGSGTEFTLTISSLQPDDFATYYCQGEFNCNSADCNSFGGGTKVEIKRTVAAPSVFIFPPSDEQLKSGTASVVCLLNNFYPREAKVQWKVDNALQSGNSQESVTEQDSKDSTYSLSSTLTLSKADYEKHKVYACEVTHQGLSSPVTKSFNRGEC
notes: Chain A heavy: CALRB1114 Fab heavy part, CD3 spFv (HL), Fc; Chain B heavy: CALRB1114
Broadly, the EC50 (read off the curve) is the concentration giving half of the maximal effect. With B1, the binding result in test [1] is reported as “no binding”. The “EC50 (read off the curve)” value is ~5 nM in test [2] and ~2 nM in test [3].

B2: C3CRB136 CALRmut x CD3 bispecific antibody (bispecific antibody, human IgG1, kappa, L234A L235A)
scFv: DIQMTQSPSSLSASVGDRVTITCRARQSIGTAIHWYQQKPGCAPKLLIKYASESISGVPSRFSGSGSGTDFTLTISSLQPEDFATYYCQQSGSWPYTFGQGTKLEIKGGGSGGSGGCPPCGGSGGEVQLVESGGGLVKPGGSLRLSCAASGFTFSRYNMNWVRQAPGKGLEWVSSISTSSNYIYYADSVKGRFTFSRDNAKNSLDLQMSGLRAEDTAIYYCTRGWGPFDYWGCGTLVTVSSEPKSSDKTHTCPPCPAPEAAGGPSVFLFPPKPKDTLMISRTPEVTCVVVSVSHEDPEVKFNWYVDGVEVHNAKTKPREEQYNSTYRVVSVLTVLHQDWLNGKEYKCKVSNKALPAPIEKTISKAKGQPREPQVYTLPPSREEMTKNQVSLWCLVKGFYPSDIAVEWESNGQPENNYKTTPPVLDSDGSFFLYSKLTVDKSRWQQGNVFSCSVMHEALHNHYTQKSLSLSPGK
heavy: QVQLVQSGAEVKKPGASVKVSCKASGFSLSSYAMSWVRQAPGQGLEWMGVIDSGGTTYYAQKFQGRVTMTRDTSTSTVYMELSSLRSEDTAVYYCARESYAGYDYYGHPIPYGMEPWGQGTLVTVSSASTKGPSVFPLAPSSKSTSGGTAALGCLVKDYFPEPVTVSWNSGALTSGVHTFPAVLQSSGLYSLSSVVTVPSSSLGTQTYICNVNHKPSNTKVDKKVEPKSCGGGGSGGGGSQVQLVQSGAEVKKPGASVKVSCKASGFSLSSYAMSWVRQAPGQGLEWMGVIDSGGTTYYAQKFQGRVTMTRDTSTSTVYMELSSLRSEDTAVYYCARESYAGYDYYGHPIPYGMEPWGQGTLVTVSSASTKGPSVFPLAPSSKSTSGGTAALGCLVKDYFPEPVTVSWNSGALTSGVHTFPAVLQSSGLYSLSSVVTVPSSSLGTQTYICNVNHKPSNTKVDKKVEPKSCDKTHTCPPCPAPEAAGGPSVFLFPPKPKDTLMISRTPEVTCVVVSVSHEDPEVKFNWYVDGVEVHNAKTKPREEQYNSTYRVVSVLTVLHQDWLNGKEYKCKVSNKALPAPIEKTISKAKGQPREPQVYTLPPSREEMTKNQVSLSCAVKGFYPSDIAVEWESNGQPENNYKTTPPVLDSDGSFFLVSKLTVDKSRWQQGNVFSCSVMHEALHNRFTQKSLSLSPGK
light: DIQMTQSPSTLSASVGDRVTITCQASQSLYNNKNLAWYQQKPGKAPKLLIYYASALASGVPSRFSGSGSGTEFTLTISSLQPDDFATYYCQGEFNCNSADCNSFGGGTKVEIKRTVAAPSVFIFPPSDEQLKSGTASVVCLLNNFYPREAKVQWKVDNALQSGNSQESVTEQDSKDSTYSLSSTLTLSKADYEKHKVYACEVTHQGLSSPVTKSFNRGEC
notes: Chain B heavy: two CALRB1114 Fab heavy parts in tandem, Fc
For the molecule B2, the values for the binding result in test [4], in test [5] and in test [6] were “no binding”, “binds” and “binds”, respectively.
